In EP3970798A1 (NMI Naturwissenschaftliches und Medizinisches Institut an …, dated 2022):

Target: receptor binding domain (RBD) of the SARS-CoV-2 Spike protein (SARS-CoV-2, UniProt P0DTC2 319-541)

B1: nanobody NM1230 (VHH)
VHH: QVQLVESGGGLVRPGGSLRLSCVGSGFTFSGYAMNWYRQAPGKALELVAGISNAGDLTHYEEPMKGRVAISRANDKNTVYLQMDDLKPEDTAVYRCHAPGVRVGTGERKDVWGQGAQVTVSS
  IC50: 2.12 nM
  Kd: 8.23 nM

B2: nanobody NM1229 (VHH)
VHH: EVQLQESGGGLVQPGESLRLSCAASGRTHDWYTMGWFRQAPGKEREFVARINWSSGMTYYADSVKGRFTISRDNPKNTVYLQMNSLTPDDTAVYYCNVHPFTSPDYWGQGTRVTVSS
  IC50: 38 nM
